The source of these data is patent US20160108087A1 (ROYAL INSTITUTION FOR THE ADVANCEMENT OF LEARNING MCGILL …, published 2016).

The labels stand for the following.
B1: 14-3-3ε protein (mouse, endogenous in MA-10 mouse Leydig tumor cells) (other, UniProt P62259 1-255, looked up)
chain: MDDREDLVYQAKLAEQAERYDEMVESMKKVAGMDVELTVEERNLLSVAYKNVIGARRASWRIISSIEQKEENKGGEDKLKMIREYRQMVETELKLICCDILDVLDKHLIPAANTGESKVFYYKMKGDYHRYLAEFATGNDRKEAAENSLVAYKAASDIAMTELPPTHPIRLGLALNFSVFYYEILNSPDRACRLAKAAFDDAIAELDTLSEESYKDSTLIMQLLRDNLTLWTSDMQGDGEEQNKEALQDVEDENQ
notes: whole, on cells; Endogenous intracellular protein, detected in fixed cells (Duolink) or cell lysates (co-IP); also called YWHAE gene product; mitochondrial import stimulating factor

In test [1] the target is B1. Kind of test: Duolink in cell IP in MA-10 cells, competition with endogenous VDAC1, 250 nM peptide.
Test [2] addresses T1, VDAC1 protein (mouse, endogenous in MA-10 cells) (mouse, UniProt Q60932 14-296).
T1 construct: Endogenous protein of the outer mitochondrial membrane in MA-10 cells; also called voltage-dependent anion-selective channel protein 1; mVDAC1
The test can be described thus: Duolink in cell IP in MA-10 cells (figure legend).

The target of test [3] is T2, translocator protein (TSPO), mouse, endogenous in MA-10 cells (mouse, UniProt P50637 1-169).
T2 construct: whole, on cells; Endogenous outer mitochondrial membrane protein
The test can be described thus: Duolink in cell IP in MA-10 cells, signal/cell ratio, with TVS167 and 8-Br-cAMP (120 min).

The target in test [4] is T3, VDAC1 protein (human, endogenous in NCL-H295R adrenocortical cells) (human, UniProt P21796 2-283).
T3 construct: Endogenous protein
Kind of test: Duolink assay in human adrenocortical cell line (figure legend).

Test [5] addresses T4, VDAC1 protein (rat, endogenous in testes sections of Sprague-Dawley rats) (rat, UniProt Q9Z2L0 1-283).
T4 construct: Endogenous protein in tissue sections
The test can be described thus: Duolink assay on rat testes sections (figure legend).

T4 sequence (Q9Z2L0 whole entry): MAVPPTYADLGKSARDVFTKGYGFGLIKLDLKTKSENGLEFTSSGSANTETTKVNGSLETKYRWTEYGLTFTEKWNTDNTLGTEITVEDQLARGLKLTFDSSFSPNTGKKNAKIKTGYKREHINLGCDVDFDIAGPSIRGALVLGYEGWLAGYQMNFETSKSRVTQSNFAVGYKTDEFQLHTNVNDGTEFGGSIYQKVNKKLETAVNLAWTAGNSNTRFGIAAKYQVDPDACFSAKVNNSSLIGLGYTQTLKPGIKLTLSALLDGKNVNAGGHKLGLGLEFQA
T1 sequence (Q60932 14-296): as the sequence (Q9Z2L0 whole entry) above
T3 sequence (P21796 2-283 limits assumed, stated change not applied): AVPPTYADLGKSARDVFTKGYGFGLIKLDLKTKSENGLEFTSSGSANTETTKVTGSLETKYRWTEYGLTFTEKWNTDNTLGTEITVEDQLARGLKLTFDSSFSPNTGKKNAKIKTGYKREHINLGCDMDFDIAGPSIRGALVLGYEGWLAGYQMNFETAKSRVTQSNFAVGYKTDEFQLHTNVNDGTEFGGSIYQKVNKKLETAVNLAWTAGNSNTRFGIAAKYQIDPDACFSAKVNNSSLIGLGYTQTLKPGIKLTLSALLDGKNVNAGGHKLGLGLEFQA
T2 sequence (P50637 whole entry): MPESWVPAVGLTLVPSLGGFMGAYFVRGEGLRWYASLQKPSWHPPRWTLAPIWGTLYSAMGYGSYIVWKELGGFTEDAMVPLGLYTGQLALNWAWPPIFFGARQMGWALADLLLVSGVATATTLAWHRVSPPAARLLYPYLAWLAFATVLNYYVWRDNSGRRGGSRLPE

As to YGRKKRRQRRRGKLDLKTKSENGLE (also called TAT-VDAC1 Ser35) [TAT-VDAC1 fusion peptide S35 (TVS35)], the binding result in test [1] is “binds”.

Take YGRKKRRQRRRGKLDLKTKGENGLE (also called TVS35G) [TAT-VDAC1 Gly35 (TVG35)]: the binding result in test [1] was “binds”.

Take B1: the binding result in test [2] is given as “binds”. Also, the “fold increase of interactions in the presence of TVS167 against untreated control” value in test [3] was found to be 1.6 fold.

B2: 14-3-3ε protein (human, endogenous in NCL-H295R adrenocortical cells) (other, UniProt P62258 1-255, looked up)
chain: MDDREDLVYQAKLAEQAERYDEMVESMKKVAGMDVELTVEERNLLSVAYKNVIGARRASWRIISSIEQKEENKGGEDKLKMIREYRQMVETELKLICCDILDVLDKHLIPAANTGESKVFYYKMKGDYHRYLAEFATGNDRKEAAENSLVAYKAASDIAMTELPPTHPIRLGLALNFSVFYYEILNSPDRACRLAKAAFDDAIAELDTLSEESYKDSTLIMQLLRDNLTLWTSDMQGDGEEQNKEALQDVEDENQ
notes: whole, on cells; Endogenous protein
On to B2, for which the binding result in test [4] is “binds”.

B3: 14-3-3ε protein (rat, endogenous in testes sections of Sprague-Dawley rats) (other, UniProt P62260 1-255, looked up)
chain: MDDREDLVYQAKLAEQAERYDEMVESMKKVAGMDVELTVEERNLLSVAYKNVIGARRASWRIISSIEQKEENKGGEDKLKMIREYRQMVETELKLICCDILDVLDKHLIPAANTGESKVFYYKMKGDYHRYLAEFATGNDRKEAAENSLVAYKAASDIAMTELPPTHPIRLGLALNFSVFYYEILNSPDRACRLAKAAFDDAIAELDTLSEESYKDSTLIMQLLRDNLTLWTSDMQGDGEEQNKEALQDVEDENQ
notes: whole, on cells; Endogenous protein in tissue sections
As for B3, the binding result in test [5] is “binds”.

B4: TAT-VDAC1 fusion peptide S167 (TVS167) (peptide)
peptide: YGRKKRRQRRRGSKSRVTQSNFAVG
notes: A FAM-labelled form was used only to show cell penetration; also called TAT-VDAC1 Ser167; TV167
With B4, the binding result in test [1] is given as “binds”.

With YGRKKRRQRRRGSKSRVTQGNFAVG (also called TVS167G) [TAT-VDAC1 Gly167 (TVG167)], the binding result in test [1] was “binds”.
